Results: patent US20150118286

Key:
P18 peptide = system: T1, P18 peptide
T1 sequence: RRYWYWRR

P16 peptide = system: T2, P16 peptide
T2 sequence: RRWWRRYY

P17 peptide = system: T3, P17 peptide
T3 sequence: RRRYWYYR

## Human tyrosinase
P18 peptide
  reduction of human tyrosinase activity at 200 µM (L-dopa substrate): 25% for P18
P16 peptide
  reduction of human tyrosinase activity at 200 µM (L-dopa substrate): human tyrosinase activity was reduced by 30% for P16
P17 peptide
  reduction of human tyrosinase activity at 200 µM (L-dopa substrate): 12% for P17
